The nature of series [1]: folding stability dG unfold from trypsin proteolysis; higher = more stable. In outline: (§1)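 Mini-proteins designed to be under 80 residues and free of cysteine were carried in a PA-tagged cDNA display construct and digested with trypsin and with chymotrypsin. Each protease was applied at 11 threefold-diluted concentrations, alongside a no-protease condition, before sequencing. K50 came from Bayesian fitting of the sequencing counts, and unfolding free energy was obtained by comparing it with a sequence-predicted unfolded-state K50 and a shared folded-state K50, for each protease separately or for both together. Designs were retained only if their AlphaFold2 dimer inter-PAE exceeded 15.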

Series [2] is described as follows: folding stability dG unfold from chymotrypsin proteolysis; higher = more stable. In outline:
as §1

Series [3] in a line: folding stability dG unfold (combined trypsin and chymotrypsin); higher = more stable. In outline: as §1

± gives the half width of the 95% confidence interval.

21 sequences from the supplement of paper PMC12764529 can be followed below.

In the case of “GRMYIVKIEIKVKRRDPEEGETRERKLEVHVIFPPNDPDALEKADEIARNLAEEDGITDVKVKIYPIRLPDS [r1_346_TrROS]”, the “folding stability dG unfold” value in series [1] was determined as 1.48 ± 0.051 kcal/mol; in series [2], 1.89 ± 0.073 kcal/mol; in series [3] it was 1.74 ± 0.22 kcal/mol.

Consider “GSLVTVFPFPENGKTVEVVVPESVGTPLSEAEIRALLLEAHPDVPAAALPAEEAAEILQATPGVEAARVVAS [r1_463_JUSTAS]”, for which the “folding stability dG unfold” value in series [1] was -0.877 ± 0.7 kcal/mol; in series [2], -0.0131 ± 0.19 kcal/mol; in series [3], -0.302 ± 0.35 kcal/mol.

As to “ITITYDKETGELTVTLSVEIEREDGYLVRVSVTIRINPNGEIKIEKKIEVIKLPPAEVKLTDEELEKLKKES [r1_4_TrROS_Hall]”, the “folding stability dG unfold” value is 2.41 ± 0.1 kcal/mol in series [1], 2.51 ± 0.11 kcal/mol in series [2] and 2.49 ± 0.27 kcal/mol in series [3].

Turning to “KAYKVVFPLPKEGRTVVVYVPEEHGKPLTEEEIAALLREAYPDKEPADLPAEELAKILAAKEGVVRVEVEGS [r1_463_TrMRF]”, the entries for the “folding stability dG unfold” value in series [1], in series [2] and in series [3] were 0.866 ± 0.089 kcal/mol, 0.995 ± 0.12 kcal/mol and 1 ± 0.13 kcal/mol, respectively.

In the case of “KETVTLEFELEDGSKVRVEVDLETKEVKVEVEKPPAPPPPPVIVLPPGLTEEERERLIKELEKKGIKVVVLS [r1_242_TrROS_Hall]”, the “folding stability dG unfold” value was 2.25 ± 0.13 kcal/mol in series [1], 2.21 ± 0.09 kcal/mol in series [2] and 2.28 ± 0.13 kcal/mol in series [3].

For the sequence “KIKELAKKLGLNVTVKVEKKPIKNPDGSTYTITKVEVTVDKKNKTITIKVEVKNKKTNKTITKTYTIKLKKS [r1_448_TrROS_Hall]”, the “folding stability dG unfold” value in series [1] was found to be 2.37 ± 0.12 kcal/mol; in series [2], 2.26 ± 0.11 kcal/mol; in series [3], 2.64 ± 0.24 kcal/mol.

Regarding “KKTYTAEEIRKLAEKLGLEVPEGDLEIKVVFKDNKKTYTIKPGEEYTLEEILEKLKKEKPNIVKIEIKKKPS [r1_135_TrROS_Hall]”, the “folding stability dG unfold” value worked out at 1.32 ± 0.18 kcal/mol in series [1], 2.31 ± 0.034 kcal/mol in series [2] and 1.99 ± 0.27 kcal/mol in series [3].

As for “KKVKIEIEVEKVEDGYYVVRIKVKFEETEETIELELVFPKSLEEVLEKIKELLPEGQITEVEIEVYPLPEPS [r1_399_TrROS_Hall]”, the entries for the “folding stability dG unfold” value in series [1], in series [2] and in series [3] were 3.89 ± 0.23 kcal/mol, 3.13 ± 0.25 kcal/mol and 3.72 ± 0.67 kcal/mol, respectively.

With “SAGEIAEALGFEVVDVSIEEVDGKLRITVVVRFKDNDLVITAEAEVTEVDGELKIEIKITIEPLPPEDLSAG [r5_516_TrROS_Hall]”, the “folding stability dG unfold” value in series [1] came out at 2.85 ± 0.26 kcal/mol; in series [2], 3.66 ± 0.37 kcal/mol.

Turning to “SAGGMVVVKIRIEREVDGKVEEVELVLEVELDEDGKVSAEELKALLKELLPENVKITEIEVVEPGEEPSAGG [r13_504_TrROS_Hall]”, the entries for the “folding stability dG unfold” value in series [1] and in series [2] were 4.76 ± 0.69 kcal/mol and 3.39 ± 0.2 kcal/mol, respectively.

Take “SAGGSAGGSAGGGMGSSVTITTEEDPTDETETTKKTKVTLNLPNPEEAEALKKKIEEKESAGGSAGGSAGGS [r10_1180_JUSTAS]”: the “folding stability dG unfold” value in series [1] is -0.47 ± 0.18 kcal/mol; in series [2], -0.807 ± 0.68 kcal/mol.

For “SAGGSAGGSAGGSKKVIEVPAKDLTPEQLKKLAKEGETIEITFPNGEKKEIPAEKLKPKSAGGSAGGSAGGS [r4_382_TrROS_Hall]”, the “folding stability dG unfold” value in series [1] is 0.115 ± 0.15 kcal/mol; in series [2], -0.998 ± 0.9 kcal/mol.

Regarding “SAGGSAGGSAGMTITVPITDLEKLKTMPELPVEVIEEGEGPPTATLDASNPELAKQAYSSSAGGSAGGSAGG [r11_65_JUSTAS]”, the “folding stability dG unfold” value in series [1] is -0.0977 ± 0.18 kcal/mol; in series [2], 0.117 ± 0.49 kcal/mol.

With “SAGGSAGGSEEVEIRIVLPDMSEEELKAALEALLSEPGAEIEIVRVERREDGSLVVTVKVRVPSAGGSAGGS [r12_348_TrROS_Hall]”, the “folding stability dG unfold” value worked out at 4.83 ± 0.43 kcal/mol in series [1] and 2.9 ± 0.12 kcal/mol in series [2].

“SAMTIEITVPPGMSVEELAKLLKELFPEVEEIKIEVEYDEETKELKVRIEIRPKPELSEEEKEALEKLKSAG [r14_645_TrROS_Hall]”: the “folding stability dG unfold” value stood at 2.9 ± 0.28 kcal/mol in series [1] and 3.99 ± 0.47 kcal/mol in series [2].

As for “SLEEFLASEEAKKRLEALKPPPPVETIRIKVKAKSVEEALKAIRELFPGVEVVKIKEVRPDGYLEVEVRRSA [r9_723_TrROS_Hall]”, the “folding stability dG unfold” value in series [1] was 3.89 ± 0.41 kcal/mol; in series [2] it was 2.37 ± 0.36 kcal/mol.

In the case of “SSFMEQARNMAEELLQKKGLPPKPGEKVEIPIPYPNGMQIRITINPEEKKIDVEFYNDNQPVEHTFKIKKSA [r9_426_TrROS]”, the figures for the “folding stability dG unfold” value in series [1] and in series [3] were 0.267 ± 0.33 kcal/mol and -0.821 ± 0.76 kcal/mol, respectively.

With “SSMSTPSSSTLTVELPDREVTASATTTTLPDGTTTTTTTFPDGSTITYDPATGTTTIYDPATGAPLATTGSA [r9_970_JUSTAS]”, the “folding stability dG unfold” value in series [1] amounted to 0.959 ± 0.048 kcal/mol; in series [3] it was 0.344 ± 0.047 kcal/mol.

Consider “SVPPFLNLPEAAKALAKAKPGPPVPRLTFPVTTDDPEEALEEILKQYPHLHPDKIKRVEVGDGYLTVEFGSA [r9_723_TrMRF]”, for which the entries for the “folding stability dG unfold” value in series [1] and in series [3] were -0.936 ± 0.34 kcal/mol and under -1 kcal/mol, respectively.

As for “SVVNFPVSLAATRDGNPVPIEEVLERVAKEIGGPDVKPEIKPGPGDTLVATVKLPDGTTATASDSSSVTDAS [r1_168_JUSTAS]”, the “folding stability dG unfold” value in series [1] was -0.293 ± 0.11 kcal/mol; in series [3], under -1 kcal/mol.

For the sequence “SVVTLEQVAELVEKGVELVAVLPDNRLLFYDPEREEPIELEVEEVPPPKPIFIEGGVESLEEALKFLEAESA [r9_649_TrMRF]”, the figures for the “folding stability dG unfold” value in series [1] and in series [3] were 0.456 ± 0.027 kcal/mol and -0.381 ± 0.37 kcal/mol, respectively.
